For 167 variants, self-cleavage results are on record in the RNAGym collection of RNA variant scans (doi:10.7554/elife.80360).

First the molecules themselves.
B1: HDV Ribozyme (parent)
chain: GGCCGGCAUGGUCCCAGCCUCCUCGCUGGCGCCGGCUGGGCAACAUUCCGAGGGGACCGUCCCCUCGGUAAUGGCGAAUGGGACCCA

In this data set the parent is B1. The experiment in a line: self-cleavage, relative activity (ratio to wild type); higher = more cleavage; co-transcriptional.
On to G53A C58G, for which the self-cleavage turned out to be 0.935.

Turning to C14G A16U, the self-cleavage is 0.791.

G1C G81A: the self-cleavage was 0.

On to G39A G73A, for which the self-cleavage is 0.0801.

Regarding C49A C64A, the self-cleavage is 0.284.

Regarding G17U C85G, the self-cleavage was 0.554.

With G2C C26U, the self-cleavage stood at 0.124.

Take U72A G74A: the self-cleavage stood at 0.373.

A16U C61A: the self-cleavage came out at 1.11.

With A45G C63U, the self-cleavage came out at 0.956.

As for C22A A45G, the self-cleavage turned out to be 0.225.

For the variant C32A U79G, the self-cleavage amounted to 0.133.

Consider G6A G54A, for which the self-cleavage amounted to 0.471.

Consider C30G C48A, for which the self-cleavage came to 0.0369.

C24G C30G: the self-cleavage came to 0.0875.

With U12C C48G, the self-cleavage was found to be 0.185.

Turning to G10A U12C, the self-cleavage was determined as 0.188.

As for A71C A77U, the self-cleavage is 0.322.

In the case of A71C A77C, the self-cleavage came to 0.0978.

For the variant C33A C85A, the self-cleavage stood at 0.18.

For the variant G35U C63U, the self-cleavage is 0.513.

On to C57U, for which the self-cleavage stood at 0.993.

Turning to C24A C49U, the self-cleavage amounted to 0.623.

C13A A87G: the self-cleavage is 0.187.

With A8U C19G, the self-cleavage amounted to 0.106.

With U12A G34C, the self-cleavage worked out at 0.208.

On to C36U G53A, for which the self-cleavage came out at 0.641.

Take C3U C33A: the self-cleavage turned out to be 0.123.

For C22G U72C, the self-cleavage is 0.

Consider C3U U9A, for which the self-cleavage is 0.904.

Consider C13U G38C, for which the self-cleavage stood at 0.0554.

Turning to G2U G39U, the self-cleavage was found to be 0.0543.

As for C3U G35U, the self-cleavage was 0.649.

Turning to C22G A77C, the self-cleavage amounted to 0.0426.

C48U G82C: the self-cleavage came to 0.196.

With C32U C57G, the self-cleavage is 0.975.

As to G2U C64A, the self-cleavage turned out to be 0.0339.

Turning to C44A G67A, the self-cleavage came to 0.415.

For the variant A16U C44G, the self-cleavage was found to be 0.604.

As for C49A C63U, the self-cleavage came to 0.817.

Consider G6A U47C, for which the self-cleavage turned out to be 0.525.

With G5C G73U, the self-cleavage was 0.0504.

As for A56U U72G, the self-cleavage is 0.734.

As to G10C C64A, the self-cleavage worked out at 0.504.

As to G31A C63G, the self-cleavage turned out to be 0.365.

As to G17U G40C, the self-cleavage was 0.189.

As for G52C U60G, the self-cleavage turned out to be 0.944.

Turning to C33G G82U, the self-cleavage came out at 0.

On to G55C U60C, for which the self-cleavage came to 1.07.

For C30A G80A, the self-cleavage stood at 0.105.

Take C15A C44A: the self-cleavage stood at 0.529.

As to C4G G53U, the self-cleavage was found to be 0.424.

On to G10A G39A, for which the self-cleavage turned out to be 0.321.

With A70G U79A, the self-cleavage came to 0.77.

Turning to G59C G82U, the self-cleavage is 0.489.

For the variant A16C C62G, the self-cleavage amounted to 0.403.

In the case of A8C C86G, the self-cleavage worked out at 1.02.

Regarding C26U C30A, the self-cleavage was 0.816.

Take U60G G73C: the self-cleavage worked out at 0.323.

On to U27G G55A, for which the self-cleavage was 0.806.

In the case of C15U G81U, the self-cleavage was found to be 0.554.

Turning to C3U G74U, the self-cleavage stood at 0.241.

As for C48A U79C, the self-cleavage was determined as 0.514.

On to A8U A83U, for which the self-cleavage was 0.26.

For G29C C62U, the self-cleavage is 0.

U37A C49A: the self-cleavage is 0.161.

C26G G55A: the self-cleavage worked out at 0.884.

With C3U C44G, the self-cleavage came out at 0.354.

For C36U C75U, the self-cleavage was found to be 0.244.

On to C22U G40U, for which the self-cleavage was determined as 0.394.

As for C3U A77G, the self-cleavage was found to be 0.739.

C63A C75G: the self-cleavage was determined as 0.201.

For the variant C21G U37C, the self-cleavage worked out at 0.0615.

G17C G29C: the self-cleavage came to 0.166.

For the variant C13A U65C, the self-cleavage was determined as 0.203.

Turning to G6C C58A, the self-cleavage was 0.308.

In the case of G40C G81U, the self-cleavage worked out at 0.162.

For C64A G76U, the self-cleavage was 0.858.

Turning to U47C G53A, the self-cleavage stood at 0.87.

As to A45U C84A, the self-cleavage turned out to be 0.446.

On to G28C G31A, for which the self-cleavage worked out at 0.0739.

In the case of U20G U47A, the self-cleavage stood at 0.0831.

In the case of G53A C84U, the self-cleavage came to 0.777.

On to C22G C85G, for which the self-cleavage is 0.0396.

Regarding A51C C63G, the self-cleavage is 0.322.

For G17A A70C, the self-cleavage amounted to 0.449.

On to C21G G59C, for which the self-cleavage was 0.106.

As to C14G A51G, the self-cleavage was determined as 0.475.

For C4A G67U, the self-cleavage was 0.354.

Consider U47G C49U, for which the self-cleavage was determined as 1.32.

As to A71G G74U, the self-cleavage amounted to 0.658.

On to C36G G52C, for which the self-cleavage was 0.166.

As for G2U C58U, the self-cleavage was 0.109.

C18A A77U: the self-cleavage worked out at 0.

With G2C A42G, the self-cleavage is 0.13.

Turning to U46C C64A, the self-cleavage was 0.569.

On to G38A G73C, for which the self-cleavage turned out to be 0.13.

In the case of C26A A71G, the self-cleavage was 1.11.

Turning to A8C A70U, the self-cleavage turned out to be 0.623.

Consider C57A C66G, for which the self-cleavage amounted to 0.985.

For C21A C22U, the self-cleavage stood at 0.138.

With A16C A51U, the self-cleavage was 0.935.

For C33G A77G, the self-cleavage is 0.138.

Consider U65A A78G, for which the self-cleavage turned out to be 0.831.

In the case of U9G C14A, the self-cleavage is 0.831.

For C26A G54A, the self-cleavage came to 0.79.

For G35A C57G, the self-cleavage is 0.684.

On to G55A G59C, for which the self-cleavage was 1.06.

Take G25A C84G: the self-cleavage was found to be 0.17.

As for U23G A87C, the self-cleavage amounted to 0.799.

With G31A G82U, the self-cleavage amounted to 0.0715.

In the case of C26A G35U, the self-cleavage turned out to be 0.619.

In the case of G39A U46G, the self-cleavage came to 0.0923.

Consider G11U C66G, for which the self-cleavage amounted to 0.397.

Consider C63A, for which the self-cleavage was determined as 0.973.

For U47G C86A, the self-cleavage was found to be 0.814.

For the variant A56G C84G, the self-cleavage came to 0.598.

Consider U47G G50U, for which the self-cleavage was 0.831.

Regarding C48U U79A, the self-cleavage came out at 0.706.

In the case of C18U U23A, the self-cleavage stood at 0.519.

For C41U C58U, the self-cleavage is 1.17.

On to A8G U23C, for which the self-cleavage was 0.612.

On to C22U C48U, for which the self-cleavage came to 0.727.

As for G80C C86A, the self-cleavage was 0.213.

Regarding G34C A70U, the self-cleavage is 0.0378.

In the case of C21A C85U, the self-cleavage was found to be 0.157.

On to G82A C84G, for which the self-cleavage is 0.232.

For the variant C48A C61A, the self-cleavage was 1.02.

G39U C62A: the self-cleavage came to 0.623.

With A16U G38A, the self-cleavage worked out at 0.113.

As for A16U C33U, the self-cleavage was 0.684.

In the case of U23A G59C, the self-cleavage stood at 0.811.

Consider A51U U72G, for which the self-cleavage turned out to be 0.534.

For the variant C58U G73U, the self-cleavage is 0.343.

Take G1C G5A: the self-cleavage was 0.0536.

Regarding U20G C62U, the self-cleavage stood at 0.19.

As for C41G G73A, the self-cleavage came to 0.712.

As to G29U G81C, the self-cleavage is 0.086.

Take C7A C33U: the self-cleavage amounted to 0.148.

On to G17C G54U, for which the self-cleavage is 0.256.

G29C G50A: the self-cleavage was 0.0277.

On to G1A G29A, for which the self-cleavage is 0.0615.

For the variant C7G C48U, the self-cleavage was 0.262.

For U60C G80C, the self-cleavage turned out to be 0.125.

For G1C G17U, the self-cleavage was determined as 0.0573.

Regarding G38U U46A, the self-cleavage turned out to be 0.106.

Turning to G59C C62G, the self-cleavage was determined as 0.6.

Turning to G28U G40U, the self-cleavage was found to be 0.0277.

C22A U47G: the self-cleavage was determined as 0.232.

With U23A A87G, the self-cleavage came out at 0.816.

As to C26U C57G, the self-cleavage was found to be 0.932.

As to G68C A71C, the self-cleavage came to 0.554.

Consider C63G G68C, for which the self-cleavage was 0.232.

On to G54U G59A, for which the self-cleavage was determined as 1.

Regarding G73A A83G, the self-cleavage amounted to 0.511.

On to U47C U79G, for which the self-cleavage came out at 0.415.

In the case of C14U G54U, the self-cleavage was 1.23.

G74U G76C: the self-cleavage amounted to 0.831.

Turning to C13A C49G, the self-cleavage was found to be 0.0326.

Take C14G C86U: the self-cleavage was determined as 1.07.

Turning to C41G G52A, the self-cleavage worked out at 0.562.

Regarding G2C C61U, the self-cleavage was 0.137.

Take U46C G73A: the self-cleavage is 0.475.

Take A42C U72C: the self-cleavage amounted to 0.107.

Take C24G G68A: the self-cleavage was 0.22.

Consider G35C G59A, for which the self-cleavage turned out to be 0.256.

With G25C C63G, the self-cleavage was 0.0875.
